The target of the assay is recombinant cryptic HDGFL2 with C-terminal glycine serine linker and 6-HisTag (human) (UniProt Q7Z4V5). The assay is described as follows: MSD sandwich ELISA on HeLa overexpression lysates; mouse IgG isotype control in place of the capture antibody. (In general: An ELISA detects its analyte on a solid surface through an enzyme-linked reagent.)
UniProt Q7Z4V5, sequence (Q7Z4V5 other isoform, or with tags, fused parts or gaps limits assumed): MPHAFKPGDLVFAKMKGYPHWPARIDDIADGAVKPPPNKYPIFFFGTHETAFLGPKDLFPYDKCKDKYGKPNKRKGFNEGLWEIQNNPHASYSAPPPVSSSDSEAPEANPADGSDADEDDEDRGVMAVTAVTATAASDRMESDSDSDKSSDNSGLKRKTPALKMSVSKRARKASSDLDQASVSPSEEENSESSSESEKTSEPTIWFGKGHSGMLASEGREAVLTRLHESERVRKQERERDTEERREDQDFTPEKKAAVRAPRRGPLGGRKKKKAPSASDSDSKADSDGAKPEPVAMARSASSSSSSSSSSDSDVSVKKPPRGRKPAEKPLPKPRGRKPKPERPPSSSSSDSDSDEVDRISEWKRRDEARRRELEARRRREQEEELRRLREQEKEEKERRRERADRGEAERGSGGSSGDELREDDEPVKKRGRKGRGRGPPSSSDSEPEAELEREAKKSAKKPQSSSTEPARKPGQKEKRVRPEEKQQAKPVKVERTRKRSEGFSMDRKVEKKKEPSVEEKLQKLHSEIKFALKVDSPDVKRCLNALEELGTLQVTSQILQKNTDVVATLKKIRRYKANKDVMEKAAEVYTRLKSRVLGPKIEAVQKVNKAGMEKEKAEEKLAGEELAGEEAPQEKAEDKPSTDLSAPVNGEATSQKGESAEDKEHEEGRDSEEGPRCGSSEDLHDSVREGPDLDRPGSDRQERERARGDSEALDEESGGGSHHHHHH

“mouse IgG isotype control (for the capture antibody)”: the ratio of cryptic/WT HDGFL2 lysate MSD signal came out at 1.

The values above are taken from patent publication US20250355002A1.
